Columns and labels:
[1] = target: p53, endogenous in 92-VU-040T HNSCC cells (human (endogenous in 92-VU-040T)) (UniProt P04637); experiment: co-IP
[2] = target: p53, endogenous in 93-VU-147T HNSCC cells (human (endogenous in 93-VU-147T)) (UniProt P04637); experiment: co-IP

fold change of the binding to p53 in PTTG-depleted cells against Scr shRNA cells [1]: 4 fold | fold change of the binding to p53 in PTTG-depleted cells against Scr shRNA cells [2]: 3.6 fold
B1: PBF, HA-tagged (natural protein)
chain: QEPPGAACSQNTNKTCEECLKNVSCLWCNTNKACLDYPVTSVLPPASLCKLSSARWGVCWVNFEALIITMSVVGGTLLLGIAICCCCCCRRKRSRKPDRSEEKAMREREERRIRQEERRAEMKTRHDEIRKKYGLFKEENPYARFENN
